Measurements taken from US20220363718A1 (Bicycle, published 2022).
*1 amine or outer side, *2 acyl side, *3 side chain or, on linkers, in order; H or OH if unused. Bridges are numbered along the chain shown (N, C = ends). Where no end group is shown, it is not given here. [ ]: non-standard residue; d: D form. The star is where a group is joined. X1 = N3CH2C(O)NH(CH2CH2O)3CH2CH2(CO), [N-]=[N+]=NCC(=O)NCCOCCOCCOCCC(=O)*; N3CH2C(O)NH(CH2CH2O)2CH2C(O) = [N-]=[N+]=NCC(=O)NCCOCCOCC(=O)*; TATA = O=C(CC[*:1])N1CN(C(=O)CC[*:2])CN(C(=O)CC[*:3])C1; Trp(1-Me) = Cn1cc(C[C@H](N)C(=O)O)c2ccccc21; Arg(Me2a) = CN(C)C(=N)NCCC[C@H](N)C(=O)O; Phe(4-F) = N[C@@H](Cc1ccc(F)cc1)C(=O)O; tBuAla = CC(C)(C)C[C@H](N)C(=O)O; NMeA = CN[C@@H](C)C(=O)O; Octanoyl = CCCCCCCC(=O)*

Target: TSLP (as used in the human PBMC assay) (UniProt Q969D9 29-159)
Experiment: cell-based or functional assay

Binder	CCL17 % Inhibition @ 10 µM, 50 pM TSLP	CCL17 % Inhibition @ 10 µM, 400 pM TSLP	CCL17 % Inhibition @ 10 µM, 666 pM TSLP
CQXLEDCXRGXC (not fully specified; Ac-CQ[TrpMe]LEDC[TrpMe]RG[4-FPhe]C; 3 Cys cyclised with TATA) [Example 16]			52%
ACDWHWEYDCWLSCEPETGQA (linker 2-10-14 via TATA) [Example 221]			-10%
CQWLEDCWRGXC (not fully specified; Ac-CQWLEDCWRG[3,4diClPhe]C; 3 Cys cyclised with TATA) [Example 11]			43%
CQWLEDCWRGXC (Ac-CQWLEDCWRG[4-ClPhe]C; 3 Cys cyclised with TATA) [Example 14]			14%
Octanoyl-C[NMeA][Trp(1-Me)][tBuAla]QDC[Trp(1-Me)][Arg(Me2a)]G[Phe(4-F)]C-NH2 (linker 1-7-12 via TATA; SMILES CCCCCCCC(=O)N[C@H]1CSCCC(=O)N2CN3CN(C2)C(=O)CCSC[C@H](NC(=O)[C@H](CC(=O)O)NC(=O)[C@H](CCC(N)=O)NC(=O)[C@H](CC(C)(C)C)NC(=O)[C@H](Cc2cn(C)c4ccccc24)NC(=O)[C@H](C)N(C)C1=O)C(=O)N[C@@H](Cc1cn(C)c2ccccc12)C(=O)N[C@@H](CCCNC(=N)N(C)C)C(=O)NCC(=O)N[C@@H](Cc1ccc(F)cc1)C(=O)N[C@H](C(N)=O)CSCCC3=O) [Example 15]	58%	64%	
DHDCTWNWEYDCWLDCA (linker 4-12-16 via TATA) [Example 200]			-42%

Further lines, results first:

CCL17 % Inhibition @ 10 µM, 50 pM TSLP	CCL17 % Inhibition @ 10 µM, 400 pM TSLP	CCL17 % Inhibition @ 10 µM, 666 pM TSLP	Binder
87%	85%		{N3CH2C(O)NH(CH2CH2O)2CH2C(O)}-C[NMeA][Trp(1-Me)][tBuAla]QDC[Trp(1-Me)][Arg(Me2a)]G[Phe(4-F)]C-NH2 (linker 1-7-12 via TATA; also: dimer: peptides clicked via N-terminal azido linker to N2,N6-dipent-4-ynoyl-L-lysine core (source also calls it trimeric), Claim 16 speaks of a dimeric or trimeric moiety) [Example 251]
83%	59%		X1-C[NMeA][Trp(1-Me)][tBuAla]QDC[Trp(1-Me)][Arg(Me2a)]G[Phe(4-F)]C-NH2 (linker 1-7-12 via TATA; also: trimer: three peptides clicked via N-terminal azido linker to N-but-3-yn-1-yl-N2,N6-dipent-4-ynoyl-L-lysinamide core, Trimer of identical bicyclic peptides on a tri-alkyne lysinamide core (formula with F3, S9)) [Example 250]

Target: T1, Biotinylated human TSLP (hTSLP(29-159)-Avi) (human, biotinylated (C-terminal Avi-tag))
T1 construct: also called thymic stromal lymphopoietin
Experiment: SPR, biotinylated hTSLP on streptavidin chip, peptide injected

T1 sequence (chain, as listed by the source limits assumed): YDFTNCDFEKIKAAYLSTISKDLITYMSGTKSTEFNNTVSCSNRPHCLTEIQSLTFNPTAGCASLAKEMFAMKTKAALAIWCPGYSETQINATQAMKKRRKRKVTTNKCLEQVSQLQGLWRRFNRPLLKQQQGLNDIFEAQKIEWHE

Binder	Kd
SPTEPPCDWHWEYDCWLSC (linker 7-15-19 via TATA; not fully specified (C-terminus)) [Example 215]	240 nM
AETCKWMWEYDCWLSCA (linker 4-12-16 via TATA) [Example 204]	100 nM
Ac-CDWHWEYDCWLSC (linker 1-9-13 via TATA; not fully specified (C-terminus)) [Example 218]	2000 nM
ADGCEWNWAYDCWLGCA (linker 4-12-16 via TATA) [Example 201]	170 nM
DEQHHECDWHWEYDCWLSCA (linker 7-15-19 via TATA; not fully specified (C-terminus)) [Example 209]	910 nM
CDWHWEYDCWLSCGDMSVS (linker 1-9-13 via TATA; not fully specified (C-terminus)) [Example 222]	450 nM
ACDWHWEYDCWLSCDPSSKQA (linker 2-10-14 via TATA) [Example 212]	250 nM
ACDWDWDYDCWLPCFAE (linker 2-10-14 via TATA; not fully specified (C-terminus)) [Example 208]	340 nM
ACDWNWTYDCWLDCAPI (linker 2-10-14 via TATA) [Example 206]	430 nM
SNATKQCDWHWEYDCWLSCA (linker 7-15-19 via TATA; not fully specified (C-terminus)) [Example 210]	180 nM
SQECQWNWTYDCWLGCA (linker 4-12-16 via TATA) [Example 203]	320 nM
CDWHWEYDCWLSCEPETGQ (linker 1-9-13 via TATA; not fully specified (C-terminus)) [Example 216]	320 nM
ANDCVWHWEYDCWLDCA (linker 4-12-16 via TATA; not fully specified (C-terminus)) [Example 220]	340 nM
NRSPSECDWHWEYDCWLSC (linker 7-15-19 via TATA; not fully specified (C-terminus)) [Example 217]	860 nM

Second part, the binder after the results:

Kd	Binder
8300 nM	ACDELDIPCWIFKTLCA (linker 2-9-16 via TATA; not fully specified (C-terminus)) [Example 232]
0.14 nM	{N3CH2C(O)NH(CH2CH2O)2CH2C(O)}-C[NMeA][Trp(1-Me)][tBuAla]QDC[Trp(1-Me)][Arg(Me2a)]G[Phe(4-F)]C-NH2 (linker 1-7-12 via TATA; also: dimer: peptides clicked via N-terminal azido linker to N2,N6-dipent-4-ynoyl-L-lysine core (source also calls it trimeric), Claim 16 speaks of a dimeric or trimeric moiety) [Example 251]
0.027 nM	X1-C[NMeA][Trp(1-Me)][tBuAla]QDC[Trp(1-Me)][Arg(Me2a)]G[Phe(4-F)]C-NH2 (linker 1-7-12 via TATA; also: trimer: three peptides clicked via N-terminal azido linker to N-but-3-yn-1-yl-N2,N6-dipent-4-ynoyl-L-lysinamide core, Trimer of identical bicyclic peptides on a tri-alkyne lysinamide core (formula with F3, S9)) [Example 250]
9900 nM	ACSLDPWSCHNWWTCA (linker 2-9-15 via TATA; not fully specified (C-terminus)) [Example 229]
740 nM	CDWHWEYDCWLSCANSEFE (linker 1-9-13 via TATA; not fully specified (C-terminus)) [Example 227]
2300 nM	CDWHWEYDCWLSCGAGESS (linker 1-9-13 via TATA; not fully specified (C-terminus)) [Example 228]
1800 nM	ACQEHDWYCLLYQPECA (linker 2-9-16 via TATA; not fully specified (C-terminus)) [Example 231]
3000 nM	CDWHWEYDCWLSCYDNEMS (linker 1-9-13 via TATA; not fully specified (C-terminus)) [Example 223]
960 nM	ACALDPWVCPQWWDCA (linker 2-9-15 via TATA; not fully specified (C-terminus)) [Example 230]
